According to the RNAGym collection of RNA variant scans (doi:10.1073/pnas.2313332121):

B1: TPR t1 (parent)
chain: GACCAAUCUGCCCUCAGAGCUCGAGAACAUCUUCGGAUGCAGAGGAGGCAGGCUUCGGUGGCGCGAUAGCGCCAACGUCCUCAACCUCCAAUGCAUCCCACCACAUGAUGAUGCCUGAAGAGCCUUGGUUUUUUG

Variants of: B1
Assay: polymerase ribozyme fitness, log enrichment relative to wild type (log ratio); higher = more active; in vitro selection for triplet polymerase activity
Outline: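 Each subunit of a heterodimeric triplet polymerase ribozyme was represented by a PCR-built, transcribed mutant library that underwent triplicate single-round in vitro selection with frozen incubation at −7 °C. Extended constructs were recovered by gel excision, streptavidin-bead capture and RT-PCR, and Illumina sequencing of input and output libraries kept genotypes with ≥10 input reads and ≥1 read per output. Fitness is the logarithm of genotype enrichment relative to wild-type enrichment, from inverse-variance-weighted replicate averages, with a logarithm base of 2.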

Row | Variant | polymerase ribozyme fitness (log ratio)
1 | C102A G135U | -3.13
2 | C3G C15A C22G C115U | -4.4
3 | A41G A118G G120U U130A | -1.43
4 | G113U U133C | -2.64
5 | A2C C3G G71C U129A | -4.77
6 | G120U G135C | 1.16
7 | C8A C12G U14C G77C C101A | -1.39
8 | A43G C86U A91U C101U U131A | -1.79
9 | C11A C115G | -3.42
10 | G39U C64U | -0.207
11 | C88A | -0.325
12 | G48U C79U G135C | -1.81
13 | G71C G117U | -3.08
14 | C4G C15A U54A A121C | -2.91
15 | C3G G60C | -1.74
16 | G71U U129C | -0.505
17 | C12A U54A G113C U125G | -3.66
18 | C31U C70A G113A C123G C124A | -7.42
19 | G69A C89G | -5.32
20 | G42A G60U C82U U112G G127C | -3.6
21 | G42A A74C G120C | -2.11
22 | G17C U54G G61A C94A U112G | -6.29
23 | C13U G39C G63U U125G U133A | -2.15
24 | G48C C49U U106G | -2.77

Row | Variant | polymerase ribozyme fitness (log ratio)
25 | U81G A95G | -4.01
26 | U59G C62A A95U | -3.76
27 | C15G C40U C56A C73U C80A C124G | -5.12
28 | A66C G69A C123U U126A | -4.63
29 | C12U G36C G117U | -0.382
30 | A5C G47A A66G | -3.08
31 | C85U G113U | -3.63
32 | A18C C86G | -3.25
33 | C31A A37U G60A A83C | -7.59
34 | C13A U81A C88U G110A A121C | -2.71
35 | C4G G44U G61U A66U C72G C82A C85A A111C | -6.11
36 | G63A U106A | -1.29
37 | A2U A37U C62U C72U U78A C124G | -0.559
38 | G45A A74U U112G | -0.353
39 | G44C A50G A111U C123A G135U | -5.29
40 | C123G U133A | 2.19
41 | C8A C70U A91C U116A | -2.96
42 | C3G G47C G52A U87A C124G | -4.41
43 | C53A G71A C124A | 0.149
44 | A41C G52U C72G U96A | -4.71
45 | U96A G113U | -3.61
46 | A18U G120A | -1.14
47 | U59A G77U U130G | -1.24
48 | C73U C97A U106C | -5.37

Row | Variant | polymerase ribozyme fitness (log ratio)
49 | U7A C53U C73U C86U A90G G122A | -2.05
50 | C15G A43U C64A A84G C85G A90C U112G U132C | -6.82
51 | C12U C53G C97A | -5.8
52 | U14G C56G A84U U106C G110U | -5.11
53 | A24G U38A U55A | -2.85
54 | C20A G71U | -2.48
55 | C20U U78C C124G | 0.066
56 | G69U A121C | 2.82
57 | A2G G52U G69C C86U | -1.64
58 | G45U U78C | -1.46
59 | C11A A121U | 0.371
60 | G42U G117A | -2.9
61 | C80U C115G | -0.729
62 | C123G U131A | 0.367
63 | C12A C28G C34A C80U C123A | -6.06
64 | A41G G45U C56G C124A | -0.22
65 | C3G C11A G36C C64U | -3.94
66 | G48U C49A C89G | -3.48
67 | C88U G120A G128A | -1.29
68 | A2U C72U G110A | -4.59
69 | A24G C115A | -1.25
70 | U59C G71A G127C U132C | -2.94
71 | G47C A84C | -0.862
72 | C70A G71C | -4.68

Row | Variant | polymerase ribozyme fitness (log ratio)
73 | A2G G120A | 0.359
74 | A2G G10C G51C G52U | -5.66
75 | A5C A26U | -5
76 | C79G A83G G117C | -5.42
77 | G19U A105U U106A G113C | -0.75
78 | A2U A16G A26U G60U A119G | -4.84
79 | C12G U14G G52C G61A C82A C88A A118U | -2.32
80 | C11G C12A C64U U96C A108G | -2.32
81 | C88U U116C G120C | -0.613
82 | A26C C88U | -5.08
83 | A6G G48C C72A | 0.333
84 | U7G A46U G93U | -2.2
85 | C15G C62A | -3.96
86 | A5U C15G G71C A84U | -4.19
87 | C62U C123U | 1.47
88 | A6C G93C A121G G127C | 0.208
89 | C15G G63C U96C G117C U130G | -0.822
90 | C62U C73U C79U C80U U112A | -3.4
91 | A6U C11A C62G G120A | -2.04
92 | G45U A46C A91C | -2.71
93 | A50U U55G C98U G127A | -5.19
94 | C8U U38G G61U G93A | -4.11
95 | C11U C99U | -3.13
96 | C34A U78C | -2.79

Row | Variant | polymerase ribozyme fitness (log ratio)
97 | G47A C53U U54C | -1.11
98 | C12U G39C G127C U133A | -1.79
99 | C49U U81G U96C | -4.63
100 | C8U G93U C102U G120C | -1.01
101 | A105U G135U | -2.99
102 | G10C C28G | -3.74
103 | C12G C53A | 0.285
104 | G42A G44U C73A | -1.69
105 | U9G C85U | -0.222
106 | G48U G120C | -0.358
107 | C72A C99U U109G | -6.16
108 | G61U U87A A121U | 1.5
109 | C56A C76A G120U | -1.15
110 | C4A A24G G48U G60A | -4.54
111 | G58U G71A C79A A103G C115U | -7.13
112 | C4A C56A C70A C72U U125G | -4.17
113 | C12U G48A U131A | -0.967
114 | C56A G58C C114U | -2.47
115 | C8U A41C C73A G122A | 0.223
116 | G69U U87A G127U U130A G135U | -2.93
117 | C11A U33G G69U U106A | -2.62
118 | A6C C85U C101U G110U | -3.01
119 | C49A C53A C70U C86A U112G G128A | -5.42
120 | C8U C88U | 0.472

Row | Variant | polymerase ribozyme fitness (log ratio)
121 | A6U C13G C56U G77C | -1.6
122 | A5C C73A C102A | -2.49
123 | U21A C53G C64U U106C | -0.936
124 | A50U G117C | -2.96
125 | G71A C82A | -1.72
126 | C97G | -4.4
127 | C40A U59A G60A | -0.777
128 | U32C C40A | -0.464
129 | C56U C99U | -3.34
130 | U59A C101U C124A | 1.59
131 | C20U A95C U129A | -2.94
132 | C8A G52A | -0.0157
133 | U54C C56U C82A U96A | -1.95
134 | G45U G93U G120A | -0.614
135 | G42U U54G C76U A111G | -2.36
136 | A5U C102A | -2.01
137 | C15U A41G G57C C62U U112A G122A G135A | -1.87
138 | C49U G61A U96A | -0.582
139 | A46U C101U | -0.308
140 | C4G C79U C104U | -1.62
141 | C72U A118U U130C | 0.16
142 | G42C C49U G128A | -5.33
143 | C56A U96A | -1.63
144 | A105C C114A | -3.98

Row | Variant | polymerase ribozyme fitness (log ratio)
145 | G110C G120U | -4.38
146 | A24G A46U C62G | -5.81
147 | U59G C79A A103G | -5.54
148 | A24G G113A | -3.26
149 | A6G C11G C12U C40G G44U G93A | -2.75
150 | A5G C53A | 0.65
151 | C15U A100U G117U | -2.41
152 | C49G G63U U130G | -2.28
153 | A27C C82G G110U | -5.23
154 | G36U A121G | 0.373
155 | C49A A74G | -0.173
156 | A41C U78G G122A | -1.85
157 | C13A A43C G93C | -5.21
158 | A37G G60A C102U | -3.61
159 | A43G G107A | -6.28
160 | U9G G48U | -1.27
161 | C62A C82U A121U U125A | 1.19
162 | G42A C56U C80U | -3.08
163 | C3U G47A | -0.64
164 | U14G A91U | -3.73
165 | U7A G19U C73G U92A | -4.76
166 | G39A C40G | -1.68
167 | A16U U92A A111C | -4.66
